Reference: patent publication US20260042834A1 (HBM ALPHA THERAPEUTICS, published 2026)
Numbering of substitutions follows the chain as printed.

T1: corticotropin-releasing hormone (CRH) peptide (human and mouse, not fully specified)
T1 peptide: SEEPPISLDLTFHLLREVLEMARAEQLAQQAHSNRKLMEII

T2: corticotropin-releasing hormone (CRH) peptide (human and mouse (same sequence), not fully specified)
T2 peptide: T1 peptide

B1: PR006669 (antibody, human IgG1, kappa, V domains shown)
VH: EVQLVESGGGLVQPGGSLRLSCAASGFTFSDNWMSWVRQAPGKGLEWVANIKQDGSENYYVDSVKGRFTISRDNAKNSLYLQMNSLRAEDTAVYYCSRGLALWGWGQGTLVTVSS
VL: DIVMTHSPLSLPVTPGDPASISCRSSQSLLHSTGYNYLDWYLQKPGQSPQLLIYLGSNRASGVPDRFSGSGSGTDFTLKFIRVEAEDVGVYYCMQALQTPYTFGQGTKLEIKR
B2: PR302309-1 (antibody, human IgG1, kappa, V domains shown)
VH: QIQLVQSGPELKKPGETVKISCKASGYTFTNYGMNWVKQAPGKVLKWMGWINTYTGEPIYTDDFKGRFAFSLETSASTAYLQINNLKNEDTATYFCSRSTMITTGGVFAYWGQGTLVTVSA
VL: DVVMTQSPLSLPVTLGQPASISCRSSQTIVHSDGNTYLEWFQQRPGQSPRRLIYKVSNRFSGVPDRFSGSGSGTDFTLKISRVEAEDVGVYYCFQGSHVPWTFGGGTKVEIKR
B3: PR302309-5 (antibody, human IgG1, kappa, V domains shown)
VH: B2 VH
VL: B2 VL with V2I, S7T, L11S, F41L, S48P, R51L, S72A
B4: PR302309-3 (antibody, human IgG1, kappa, V domains shown)
VH: B2 VH
VL: B2 VL with V2I, S7T, P12S, L15P, F41Y, Q42L, R44K, R50Q, R51L
B5: PR302309-2 (antibody, human IgG1, kappa, V domains shown)
VH: B2 VH
VL: B2 VL with F41Y, R51L, V88L
B6: PR302309-10 (antibody, human IgG1, kappa, V domains shown)
VH: QIQLVQSGSELKKPGASVKVSCKASGYTFTNYGMNWVRQAPGQGLEWMGWINTYTGEPIYTDDFKGRFVFSLDTSVSTAYLQISSLKAEDTAVYYCSRSTMITTGGVFAYWGQGTLVTVSS
VL: B2 VL with S7T, P12S, L15P, F41Y, Q42L, R44K, R50Q, R51L, V88L
B7: PR302309-7 (antibody, human IgG1, kappa, V domains shown)
VH: B6 VH
VL: B2 VL
B8: PR302309-4 (antibody, human IgG1, kappa, V domains shown)
VH: B2 VH
VL: B2 VL with S7T, P12S, L15P, F41Y, Q42L, R44K, R50Q, R51L, V88L
B9: PR302309-11 (antibody, human IgG1, kappa, V domains shown)
VH: B6 VH
VL: B2 VL with V2I, S7T, L11S, F41L, S48P, R51L, S72A
B10: PR302309-12 (antibody, human IgG1, kappa, V domains shown)
VH: B6 VH
VL: B2 VL with S7T, L11S, F41Y, S48P, R51L, S72A, V88L
B11: PR302309-9 (antibody, human IgG1, kappa, V domains shown)
VH: B6 VH
VL: B2 VL with V2I, S7T, P12S, L15P, F41Y, Q42L, R44K, R50Q, R51L
B12: PR302309-6 (antibody, human IgG1, kappa, V domains shown)
VH: B2 VH
VL: B2 VL with S7T, L11S, F41Y, S48P, R51L, S72A, V88L
B13: PR302309-8 (antibody, human IgG1, kappa, V domains shown)
VH: B6 VH
VL: B2 VL with F41Y, R51L, V88L
B14: PR302334-12 (antibody, human IgG1, kappa, V domains shown)
VH: EVQLVESGGGLVQPGGSLRLSCAASGFTFSTYAMSWVRQAPGKGLEWVASIRSGGTTYYPDSVKGRFTISRDNSKNTLYLQMNSLRAEDTAVYYCTRGIDWGQGTTVTVSS
VL: DIQMTQSSLSASVSLGDRVTITCKASQSVNNDVAWYQQKPGKAPRLLIYYASNRYTGVPSRFSGSGSGTDFTFTISSLQPEDLATYFCQQDYSSWTFGGGTKVEIKR
B15: PR302334-22 (antibody, human IgG1, kappa, V domains shown)
VH: B14 VH with A49S, T77S, T96A
VL: EIVMTQSPATLSVSPGERATLSCKASQSVNNDVAWYQQKPGQAPRLLIYYASNRYTGIPARFSGSGSGTEFTLTISSLQSEDLAVYFCQQDYSSWTFGGGTKVEIKR
B16: PR302334-25 (antibody, human IgG1, kappa, V domains shown)
VH: B14 VH with Q13K, S74A, T77S
VL: B14 VL
B17: PR302334-27 (antibody, human IgG1, kappa, V domains shown)
VH: B14 VH with T77S
VL: B14 VL
B18: PR302334-26 (antibody, human IgG1, kappa, V domains shown)
VH: B14 VH with T77S
VL: DIVMTQSPDSLAVSLGERATINCKASQSVNNDVAWYQQKPGQPPRLLIYYASNRYTGVPDRFSGSGSGTDFTLTISSLQAEDLAVYFCQQDYSSWTFGGGTKVEIKR
B19: PR302334-15 (antibody, human IgG1, kappa, V domains shown)
VH: B14 VH with Q13K, A49S, S74A, T77S, T96A
VL: NIVMTQTPKFLLVSAGDRITITCKASQSVNNDVAWYQQKPGQSPKLLIYYASNRYTGVPDRFTGSGYGTDFTFTISTVQAEDLAVYFCQQDYSSWTFGGGTNLEIKR
B20: PR302334-14 (antibody, human IgG1, kappa, V domains shown)
VH: B14 VH
VL: B19 VL
B21: PR302334-18 (antibody, human IgG1, kappa, V domains shown)
VH: B14 VH with T77S
VL: B19 VL
B22: PR302334-16 (antibody, human IgG1, kappa, V domains shown)
VH: B14 VH with Q13K, S74A, T77S
VL: B19 VL
B23: PR302334-17 (antibody, human IgG1, kappa, V domains shown)
VH: B14 VH with A49S, T77S, T96A
VL: B19 VL
B24: PR302334-24 (antibody, human IgG1, kappa, V domains shown)
VH: B14 VH with Q13K, S74A, T77S
VL: B18 VL

Target: T1, corticotropin-releasing hormone (CRH) …
Assay: cell-based or functional assay

In the case of B1, the “hCRHR1 Reporter IC50” value is reported as 7.38 nM.

Target: T2, corticotropin-releasing hormone (CRH) …
Assay: cell-based or functional assay

Compared with B2, B3 is 9.7-fold lower in “hCRHR1 Luciferase Reporter Assay IC50” value: 4.42 nM for the first, 0.454 nM for the second.

Going from B4 to B5, the “hCRHR1 Luciferase Reporter Assay IC50” value falls from 2.22 nM to 0.773 nM (2.9-fold).

First: B6
Second: B7
The “hCRHR1 Luciferase Reporter Assay IC50” value of the first is 2-fold lower: 3.2 nM for the first, 6.38 nM for the second.

Compared with B8, B9 is 1.7-fold higher in “hCRHR1 Luciferase Reporter Assay IC50” value: 1.26 nM for the first, 2.12 nM for the second.

B10 and B11 are within 1.5-fold of each other in “hCRHR1 Luciferase Reporter Assay IC50” value: 4.47 nM for the first, 6.08 nM for the second.

Compared with B12, B13 is 1.6-fold higher in “hCRHR1 Luciferase Reporter Assay IC50” value: 1.08 nM for the first, 1.7 nM for the second.

Target: T2, corticotropin-releasing hormone (CRH) …
Assay: cell-based or functional assay
Remark: another data set of the same source

B14 and B15 are within 1.5-fold of each other in “hCRHR1 Luciferase Reporter Assay IC50” value: 0.986 nM for the first, 0.92 nM for the second.

B16 and B17 are within 1.5-fold of each other in “hCRHR1 Luciferase Reporter Assay IC50” value: 1.7 nM for the first, 1.36 nM for the second.

First: B18
Second: B19
The “hCRHR1 Luciferase Reporter Assay IC50” value of the first is 4.7-fold lower: 1.1 nM for the first, 5.12 nM for the second.

Going from B20 to B21, the “hCRHR1 Luciferase Reporter Assay IC50” value falls from 0.468 nM to 0.279 nM (1.7-fold).

Going from B22 to B23, the “hCRHR1 Luciferase Reporter Assay IC50” value rises from 0.339 nM to 12.2 nM (36-fold).

For B24, the “hCRHR1 Luciferase Reporter Assay IC50” value was 0.778 nM.

In the case of B17, the “hCRHR1-Luc 0.5 nM CRH IC50” value is reported as 1.36 nM.

Compared with B17, B18 is 1.7-fold lower in “mCrhr1 Luciferase Reporter Assay IC50” value: 2.27 nM for the first, 1.34 nM for the second.

B24 was tested, and the “mCrhr1 Luciferase Reporter Assay IC50” value was 1.82 nM.
